Assay results as given in the supplement of paper PMC7125110.
± gives the standard error. Variants at the floor of the assay were thinned out.

B1: glmS ribozyme (parent)
chain: AUAAAAGCGCCAGAACUACAGAAAUGUAGUUGACGAGGAGGAGGUUUAUCGAAUUUUCGGCGGAUGCCUCCAAA

Legend:
Settings in all cases: with glucosamine-6-phosphate
glucosamine-6-phosphate [1] = variants of: B1; assay: self-cleavage kobs at 40 uM GlcN6P; higher = faster cleavage; RNA array
In short: (§1)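 A hybridised Cy3 probe tracked barcoded ribozyme variants, transcribed in situ by E. coli RNA polymerase on sequenced MiSeq chips, at 37 °C. The variants received 40 μM to 10 mM glucosamine-6-phosphate in HEPES/KCl/Mg(OAc)2 buffer. kobs came from decay fits and kcat and KM from weighted Michaelis–Menten fits.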

glucosamine-6-phosphate [2] = variants of: B1; assay: self-cleavage kobs at 10000 uM GlcN6P; higher = faster cleavage; RNA array
In short: as §1

glucosamine-6-phosphate [3] = variants of: B1; assay: self-cleavage kobs at 160 uM GlcN6P; higher = faster cleavage; RNA array
In short: as §1

glucosamine-6-phosphate [4] = variants of: B1; assay: self-cleavage kobs at 640 uM GlcN6P; higher = faster cleavage; RNA array
In short: as §1

glucosamine-6-phosphate [5] = variants of: B1; assay: self-cleavage kobs at 2500 uM GlcN6P; higher = faster cleavage; RNA array
In short: as §1

Variant	self-cleavage kobs at 40 uM GlcN6P (glucosamine-6-phosphate [1])	self-cleavage kobs at 10000 uM GlcN6P (glucosamine-6-phosphate [2])	self-cleavage kobs at 160 uM GlcN6P (glucosamine-6-phosphate [3])	self-cleavage kobs at 640 uM GlcN6P (glucosamine-6-phosphate [4])	self-cleavage kobs at 2500 uM GlcN6P (glucosamine-6-phosphate [5])
AUAAAGGCGCCAUAACUACAGAAAUGUAGUUGACGAGUAUGAGGUUUAUCGAAUUUUCGGCGGAUGCCUCCAAA	< 1e-05 s⁻¹	< 1e-05 s⁻¹	–	–	–
AUAAAAGCGCCAGAACUACAGAAAUGUAGUUGACGAGGAGGAGGUUUAUGGAAUUUUCGGCGGGUGCCUCAAAA	8.51e-05 ± 2.3e-05 s⁻¹	9.96e-05 ± 2.1e-05 s⁻¹	–	–	–
AUAAACGCGCCAGAACUACAGAAAUGUAGGUGACGAGGAGGAGGUUUAUGGAAUUCUCGGCGGAUGCAUCCAAA	7.1e-05 ± 2.5e-05 s⁻¹	0.000356 ± 0.00016 s⁻¹	–	–	–
AUAAAAGCCCCAGAACUACAGAAAUGUAGUUGACGAGGAGGAGAUUUAUCGAAUUUUCGGCGGAUGCCUCCAAA	< 1e-05 s⁻¹	< 1e-05 s⁻¹	< 1e-05 s⁻¹	< 1e-05 s⁻¹	< 1e-05 s⁻¹
AUAAAAGCGGCAGAACUACAGAAAUGUAGUUGACGAGGAGUAGGUUUAUCGAAUUUUCGGCGGAUGCCUCCAAA	< 1e-05 s⁻¹	< 1e-05 s⁻¹	< 1e-05 s⁻¹	< 1e-05 s⁻¹	< 1e-05 s⁻¹
AUAAAAGCGCCAGAACUACAGAAAUGUAGUUAACGAGGAGGAGGUUUAUCGAAAUUUCGGGGGAUGCCUCCAAA	< 1e-05 s⁻¹	< 1e-05 s⁻¹	–	< 1e-05 s⁻¹	–
AUAAAAUCGCCAGAACUACAGAAAUGUAGUUGACAAGGACGACGUUUAUCGAAUUUUGGGCGGAUGCCUCCAAA	< 1e-05 s⁻¹	–	–	–	–
AUAAACCCGCCAGAACUACAGAAAUGUAGUUGACGAGGAGGCGGUUUAUCGAAUUUUCGGCGGAUGCCUCUAAA	< 1e-05 s⁻¹	< 1e-05 s⁻¹	–	–	–
AUAAAAGCGCCAGCACUACAGAAAUGUAGUUGACGAGGAGGCGGUUUAUCGAAUUUUCGGCGGAUGCCUCCAAA	< 1e-05 s⁻¹	–	–	< 1e-05 s⁻¹	< 1e-05 s⁻¹
AUAAAAGCGCAAGAACUACAGAAAUGUAGUUGACCAGGAGGAGGUUUAUCGAAUUUUCGGCGGAUGCCUCCAAA	< 1e-05 s⁻¹	–	< 1e-05 s⁻¹	< 1e-05 s⁻¹	< 1e-05 s⁻¹
AUAAAAGCGCCAGAACUACAGAAAUGUAGUUGACGAGGAGGAGGUUUAUCGAAGUUUCGGCGGAUGGCUCCAAA	0.000338 ± 4.2e-05 s⁻¹	0.00398 ± 0.0006 s⁻¹	0.000142 ± 4.5e-05 s⁻¹	0.00079 ± 0.00024 s⁻¹	0.000568 ± 0.00012 s⁻¹
AUAAAAGCGCCAGAACUACAGAAAUGUAGUUGACGAGUAGGAGGUUUAUCGAAUCUUCGGCGGAUGGCUCCAAA	< 1e-05 s⁻¹	–	–	< 1e-05 s⁻¹	–
AUAAAAGCGCCAGAACUACAGAAAUGUAGUUGACGAGGAGGUGGUUUAUCGAAUUUUGGGCGGAUGCCUCCAAA	< 1e-05 s⁻¹	–	< 1e-05 s⁻¹	< 1e-05 s⁻¹	< 1e-05 s⁻¹
AUAAAAGCGCCAGAACUACAGAAAUGUAGUUGACGAGGAAGAGGUUUAUCGAAUUUUCGGCGGAUGCAUCCAAA	< 1e-05 s⁻¹	< 1e-05 s⁻¹	< 1e-05 s⁻¹	< 1e-05 s⁻¹	< 1e-05 s⁻¹
AUAAAAGCGCCAGAACUACAGAAAUGUAGUUGACGAGGAGGUGGUUUAUUGAAUUUUCGGCGGAUGCCUCCAAA	< 1e-05 s⁻¹	< 1e-05 s⁻¹	< 1e-05 s⁻¹	< 1e-05 s⁻¹	< 1e-05 s⁻¹
AUAAAAGCGCCAGAACUACAGAAAUGUAGUUGACUAGGAGGAGGUUAAUCGAAUUUCCGGCGGAUGCCUCCAAA	< 1e-05 s⁻¹	–	–	–	–
AUAAAAGCGCCAGAACUACAGAAAUGUAGUUGACGAGGAGGAGGUUUAUCGAAUUUUCGGCGGAUACCACCAAA	8.7e-05 ± 1.7e-05 s⁻¹	0.00178 ± 0.00037 s⁻¹	0.000185 ± 3.8e-05 s⁻¹	0.0005 ± 9.3e-05 s⁻¹	0.000595 ± 0.00011 s⁻¹
AUAAAAGCGCCAGAACUACAGAAAUGUAGUUGACGAGGAGGAUGUUGAUCGAAUUUUCGGCGGAUGCCUCCAAA	< 1e-05 s⁻¹	–	< 1e-05 s⁻¹	–	–
AUAAAAGCGCCAGAACUACAGAAAUGUAGUUAUCGAGGGGGAGGUUUAUCGAAUUUUCGGGGGCUGCAUCCAAA	< 1e-05 s⁻¹	< 1e-05 s⁻¹	–	–	–
AUAAAAGCGCCAGAACUACAGAAAUGUAGUUGACGAGGAGUAGGUUUAUCUAGUUUUCGGCGGAUGCCUCCAAA	< 1e-05 s⁻¹	< 1e-05 s⁻¹	–	–	–
AUAAAAACGCCAGAACUACAGAAAUGUAGUUGACGAGGAGGAGGUUUAUCGAAUUUUCGGCCGAUGCCUCCAAA	< 1e-05 s⁻¹	–	< 1e-05 s⁻¹	< 1e-05 s⁻¹	< 1e-05 s⁻¹
AUAAAAGCGCCAGAACUACAGAAAUGUAGUUGACGAGGAGGAGGUCUAUCGAAUUUUCUGCGGAUGCCUCCAAA	< 1e-05 s⁻¹	–	< 1e-05 s⁻¹	–	–
AUAAAAGCGUCAGAACUACAGAAAUGUAGUUGACGACGAGGAGGUUUAUCGAAUUUUCGGCGGAUACCUCCAAA	< 1e-05 s⁻¹	–	–	–	–
AUAAAAGCUCCAGAACUACAGAAAUGUAGUUGACGAGGAUGAGCUUUAUCGAAUUUUCGUCGGAUGCCUCCAAA	< 1e-05 s⁻¹	< 1e-05 s⁻¹	–	–	–
AUAAAAACGCCAGAACUACAGAAAUGUAGUUUACGAGGGGGAGGUUUAUCGAAUUUUAGGCGGAUGCCUCCAAA	< 1e-05 s⁻¹	< 1e-05 s⁻¹	–	–	–
AUAAAAGGGCCAGAACUACAGAAAUGUAGUUGACGAGGAGGAGGUUUAUCGAAUUUUCGGCAGAUGCCUCCAAA	< 1e-05 s⁻¹	–	–	–	< 1e-05 s⁻¹
